Earlier results on one substance are cited in article PMC8083718.

The pKd is −log10 of the Kd, conventionally taken in molar units.

In the series the target is ACE2 (Homo sapiens) (UniProt Q9BYF1).

pKd: −log10 of the molar value.

Chain of ACE2 (Homo sapiens) (Q9BYF1 18-740): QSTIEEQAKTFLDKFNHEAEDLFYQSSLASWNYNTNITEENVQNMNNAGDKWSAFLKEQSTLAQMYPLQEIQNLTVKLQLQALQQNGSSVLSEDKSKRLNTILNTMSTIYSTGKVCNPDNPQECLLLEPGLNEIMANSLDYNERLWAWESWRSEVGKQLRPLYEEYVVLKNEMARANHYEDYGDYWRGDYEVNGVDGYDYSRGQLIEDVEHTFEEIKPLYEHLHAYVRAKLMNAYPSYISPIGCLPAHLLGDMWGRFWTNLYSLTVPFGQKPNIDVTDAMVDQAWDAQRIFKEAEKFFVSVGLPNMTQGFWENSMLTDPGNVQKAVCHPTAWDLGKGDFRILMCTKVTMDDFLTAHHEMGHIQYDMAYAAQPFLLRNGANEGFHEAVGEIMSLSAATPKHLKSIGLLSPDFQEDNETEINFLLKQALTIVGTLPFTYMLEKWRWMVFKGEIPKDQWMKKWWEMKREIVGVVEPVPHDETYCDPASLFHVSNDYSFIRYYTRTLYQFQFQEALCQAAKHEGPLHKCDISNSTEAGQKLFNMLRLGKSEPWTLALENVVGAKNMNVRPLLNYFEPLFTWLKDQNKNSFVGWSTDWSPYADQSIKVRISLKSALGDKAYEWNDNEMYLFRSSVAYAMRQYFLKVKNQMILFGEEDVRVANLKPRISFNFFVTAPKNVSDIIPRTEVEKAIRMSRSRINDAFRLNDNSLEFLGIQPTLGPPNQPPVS

For the substance spike protein (from UniProt P59594), the pKd was 9.92.
